Measurements reported in article PMC8534003, “The Chemokine-Based Peptide, CXCL9(74-103), Inhibits Angiogenesis by Blocking Heparan Sulfate Proteoglycan-Mediated Signaling of Multiple Endothelial Growth Factors” (Cancers, 2021).

Experiments:
[1] = test system: human microvascular endothelial cells (HMVECs); assay: xCELLigence adhesion assay; assay type: cell-based; settings: 50 ng/mL, 1 h, compared to untreated cells
Procedure: The wells of an E-plate (ACEA Biosciences, Inc.) were washed and coated with 0.1% (v/v) gelatin in phosphate-buffered saline (PBS) at 37 °C for 1 h. Following a washing step, wells were incubated with 0.1% (v/v) bovine serum albumin (BSA) in PBS at 37 °C for 1 h. After washing, 50 µL basal MCDB131 medium was added and the plate was allowed to equilibrate at 37 °C. HMVECs were harvested and seeded at 4 × 10^4 cells/well together with 50 ng/mL VEGF165 with or without 0.03, 0.3 or 3 µM of CXCL9(74-103) or 3 µM of CXCL9(86-103) in 100 µL control medium (vide supra). Real-time changes in electrical impedance depicted as cell indices, as measure for cell adhesion and spreading, were analyzed using the xCELLigence® RTCA DP System. The adhesion of HMVECs was analyzed 1 h after seeding.

[2] = fold lower affinity than FGF-2; cited from earlier work
Description: In our present study, we wanted to explore the potential of CXCL9(74-103), a high affinity GAG-binding peptide, to interfere with angiogenesis by targeting growth factor-induced signaling cascades and associated processes. […] The obtained KD value lies within the range of the concentrations that were applied in the different in vivo and in vitro assays reported here. FGF-2-mediated proliferation, chemotaxis and sprouting in vitro was diminished by CXCL9(74-103). Also in vivo, CXCL9(74-103) treatment attenuated FGF-2-mediated neovascularization in the Matrigel plug assay. The inhibitory mechanism responsible for countering FGF-2 could be that (1) by direct interaction with FGF-2, CXCL9(74-103) can t ...

[3] = test system: human microvascular endothelial cells (HMVECs); assay: Endothelial cell proliferation assay (MTT or ATP lite); assay type: cell-based; settings: EGF, VEGF165 5 ng/mL or FGF-2 3 ng/mL as single stimulus
Procedure: The ability of the CXCL9-derived peptides to inhibit growth factor-induced proliferation of endothelial cells was assessed. HMVECs were seeded at 5 × 10^3 cells/well in EBM™-2 medium containing 1% (v/v) FCS (proliferation medium). After settling of the cells, they were stimulated with EGF, VEGF165 (both 5 ng/mL) or FGF-2 (3 ng/mL) as a single stimulus or in combination with CXCL9(86-103) or CXCL9(74-103) at 0.3 or 3 µM in proliferation medium or left untreated. HMVECs were also treated with 0.3 or 3 µM of CXCL9(74-103) or 3 µM of CXCL9(86-103) alone to assess the effect of CXCL9-derived peptide treatment on spontaneous proliferation. After 3 to 4 days, a 3-(4,5-dimethylthiazol-2-yl)-2,5-diphenyl tetrazolium bromide (MTT) or ATP lite assay was performed. The ATP lite assay was performed according to the manufacturer’s instructions (Perkin Elmer, Waltham, MA). When MTT was used as substrate, the medium was replaced with 200 µL of MTT solution (RPMI without phenol red containing 0.4 g/L MTT) and the cells were incubated at 37 °C and 5% CO2 in the dark for 4 hours. Then, the MTT solution was discarded and the formed formazan crystals were dissolved in 200 µL acidic propanol [0.04 M HCl, 0.1% (v/v) NP-40 in isopropanol] under continuous shaking in the dark for 10 min. The optical densities were measured at 570 nm and 630 nm (reference wavelength).

[4] = test system: human microvascular endothelial cells (HMVECs); assay: xCELLigence chemotaxis assay (HMVEC migration); assay type: cell-based; settings: EGF 10 ng/mL, FGF-2 30 ng/mL or VEGF165 10 ng/mL in lower chamber
Procedure: To evaluate the effect of the CXCL9-derived peptides on growth factor-induced endothelial cell migration, the xCELLigence® real-time cell analyzer (RTCA DP) system (ACEA Biosciences, Inc.; San Diego, CA, USA) was used. First, 160 µL MCDB131 medium (Gibco) supplemented with 0.4% (v/v) FCS (control medium) or 160 µL control medium with 30 ng/mL FGF-2, 10 ng/mL VEGF165 or 10 ng/mL EGF were added to the lower chamber of a cell invasion/migration (CIM)-Plate (ACEA Biosciences, Inc.). After assembly of the lower and upper chamber, 50 µL of serum-free MCDB131 medium was added in the upper wells. Following equilibration of the plate at 37 °C for 1 h, HMVECs were added in the upper chamber at 4 × 10^4 cells in 100 µL/well. CXCL9(74-103) or CXCL9(86-103) was added together with the cells in the upper compartment at a concentration of 0.3 or 3 µM. The assembled CIM-Plate was left at room temperature for 30 min to allow the cells to settle onto the membrane. Finally, the plate was placed in the instrument at 37 °C to monitor cell migration for 15 h. Cell migration from one compartment to the other was recorded (one recording every minute) as changes in electrical impedance. These changes were converted into cell indices, as a measure of cell migration.

B1: VEGF165: human recombinant VEGF165 (Biolegend), stimulus (protein)
chain: MNFLLSWVHWSLALLLYLHHAKWSQAAPMAEGGGQNHHEVVKFMDVYQRSYCHPIETLVDIFQEYPDEIEYIFKPSCVPLMRCGGCCNDEGLECVPTEESNITMQIMRIKPHQGQHIGEMSFLQHNKCECRPKKDRARQENPCGPCSERRKHLFVQDPQTCKCSCKNTDSRCKARQLELNERTCRCDKPRR
adhesion in response to VEGF165 alone [1]: HMVECs adhered more profoundly to the substratum compared to untreated cells | affinity for heparin compared to FGF-2 [2]: 8 fold | enhancement of proliferation by growth factor alone [3]: significant enhancement of proliferation | enhancement of migration by growth factor alone [4]: significant enhancement of endothelial cell migration
